Here are results for 21 sequences from the DeepSol protein solubility set.

The nature of the data set: soluble on expression in E. coli; label from the status in PepcDB or PDB records.
In the case of “MISVTFRQILGLVSLLCATWLYSQCRHIWLLAQDDFNEQFTNFLGEKWWSTDQLELCDDETKDTKWQKNDSICITYVYNMLPVDMEIISWAPTLVIYRNLMSPRQTASFLNFIEQRDLEIQKTSDFGTSIETTHRRANGSFIPPEDSNVTVEIKMQAQKRIPGLNLTVAEHFSALSYLPGGHYAVHYDYLDYRSKQDYDWWMNKTGNRIGTLIFVLKPAEKGGGTVFPSIGSTVRANAGDAFFWFNAQADEEKEMLSNHGGCPIYEGRKVIATIWIRAYNQRILPMAPAGSSIHASWLIPSLSNRFRPEMQTQSPVPN”, the “soluble on expression in E. coli” value was “not soluble”.
The value for “MGSDKIHHHHHHMAKFKIEIDSETCLGYKECGLCVSACEESIIVPDEKTGKVKVDKTREINCDGLGACLDVCPVGALKITSESGFSCGGHSGNPCPGSAVKSFNRSEQRSEMLQNKETESELLNWPVQLHLLNPNASYFKNADLIIAADCVPFAYPDFHNNLLKGKVLAIACPKLDDTKDYMLKIRQIVEKNNIKNVTVAIMTVPCCSGLYSLVNRALDGLDVNITKKVISLDGKLMD” was “not soluble”; that for “MGSDKIHHHHHHMTGIVTANWWTSLIYRVFVRTACLRAGRGLLPNIWEWLWRLSCNIIEGPVDITIHNRPAIVNFGYTYPIYMRCYPELNAPLVELTYQCWRSRGTAICIVDVGAAVGDTMLLLHSNLPEAVGSFVCIEGDQEFYRYLQHNLGHMTEGRLINVVVADQETEVSDLVRIHTGTASAQGERTRGASTLSAVVTEEIDLIKIDVDGFDGRVLLGAEDLLKRCRPLVIFEWHPSLCRQTGNNWTDHFDVLARCGYSRCLWFTKFGHFSHFSFGHCREEIDTLAEYCMSDVVKDWHYDVIALHDDSDLSLLLLSQLGFAKARPSRY” was “not soluble”; that for “GPGSMFRRLSSSARAVVAARFYTPPEGLKKLYASDFENSKYPLNIVPSDSVLFAKFLYKAAEEKGNFDNILSDFQKIAAAASKLPIFWERTAVVEKIPEFKQLSEPTFFTLVWMQNNGMLELIQEVAEVYETFVNAKQKKAVAKIFVAPGGEKNVEEARRVAEELHKGLKELADYTLVLKTVVDRTIVKGFAVELAGQYVNKAEGQQKQAGRADEVDYTNLPAPKPQKTVWDDNIETEVLRKYLDGLSQYDMEEAKYGV” was “not soluble”.
The value for “MARVEGELFKIARASLEAEPIAWRYRYVKKGVMDSQGELWVGDWKYVPKKEDCNDRPNYEIQALFTAPPVPVTSEELVKAVHFYEQLKRENPPASGNQINGLTMSVKRPAN” was “not soluble”.
As for “GPGSMEARGNVDGEKFRSINTLRTRFPALTVSDARALLERHNWNVAIAGAEAERGERQRTKADSANYFVGGGDKGSGQQVMAPSGESVSDRSGEIASGSGVHSMIDRIFRKAEVEGAKASGGDGGSGVEDNEPRAFYGRGQRLGYTANPSPYVASTLRAERSVCITVYRDGFEVDSNGFVPLNSDEGRQFVEAMDKGYVPPSLAAKYPNTDLTVNLRDCLQVDYVPPSYIAFQGDGHRLAAPSSTAASSAAPANAQASPATAGRSGTPAYDPSRTVEVRSDEATSFVVLLNTRGERRQVQVNPERHTVDDLYSLAHAYQPELQNFILVERGMPPRRLEASTRSQTIAQAKLSRAVVALQQM”, the entry is “soluble”; as for “MGSDKIHHHHHHMIREIRITSFEGLISEMESLGKELWFRGVTNKNYSLIPGSVRFDLNGWKEVSAVLDFMASYQNHHDYIESNWELYSLMQHYGFPTRLLDWSTSVIVALYFALDGDADVDDAGSAIDRVVWGMTTGMLNNLNFLNRRVIPTAIGKATTGEKYLPSPLRKKEGDDFEFEKNPLAVKMPFTNKRVSAQKGCFTIHGSNPKGIEEIMEENGLGSELIKFVFDEEAAMAIRKTLYKLDINEDDIYQDLNSLSKRIVLVNPNWTLLVENFQILQVTDHH”, “not soluble”.
Turning to “MGSDKIHHHHHHMKIYRVGGSVRDELLGLPVKDQDYVVVGATPEEMVRLGYRPVGKDFPVFLHPETHEQYALARTERKIARGYKGFEVYAAPGVTLQEDLARRDLTINAMARDEAGDIVDPFGGIADLQAGILRHIGPAFVEDPVRVLRVARFAARFGFQIAPETLELMKEIVHTGETEALVPERVWQEIAHGLMESHPSRMFYVLRECGALARILPEVDALFGVPQPAHAHPEIDTGIHVMMVIDHAASKQYPLEVRFAGLTHDLGKGTTSPDEWPRHIGHEARSVELVMGLCERIRVPGESRDLALLVARFHGDVHRALELRPATIADMLQATDAYRKKARFQAFLQACASDFHGRPGFADKPYPQKEHLSRALQVAVDVDAGAIAMQLNQSHAGKADLPMRINRQVYAARVERISSLLSHL”, the “soluble on expression in E. coli” value is “not soluble”.
Turning to “LNHIYNVAFWAEEIGKIVGLDEKRLAKLYLAGLLHDIGKVYIDERILNKEGRLTLQEYQEMKKHVDYSYNMVKDLMIWDIEDDVALWVVQHHEKFDGSGYPFGLKEEEITPEGRILKIADTLDA”, the “soluble on expression in E. coli” value is “soluble”.
Consider “MGSDKIHHHHHHAPKKKEEPSPEASSSKRPFRVCLNVSTIAGYKLPVQKQIDLCAEAGFEGIELWTRDVDAFVKQGGTYETLRRQLEGSGLLLENMIGFASWFADDLSKRKEGLNQMRHDMEMVAGLGGKFIAAPAQGVTQLDRTRLPEYSERYRAILDLGDEMGVTPILELWGAGILNQLSDTMAIAIASGHSRASVLLDFYHLYRGGNSFDSLRLINGKILPVFHINDYPELPPRTELRDSDRVFPGDGICPFNKVLPLLYDSGFRGGLSVELFNKGYWETMDVKEVLKKSFEKTTQVINSSMG”, for which the “soluble on expression in E. coli” value is given as “not soluble”.
Consider “MNNNTLSDDNLYNIENWGEGYFRINSKGNIEISKKPGKPGVELQTIVDAADRAGLHLPLLIRCSDILHDRVHRIYQAFTQAREDTCYAGNYQLVYPIKVNQEQSVVRELLKSPDNQIGLEAGSKPELMAVIGMLGDHQSTIVCNGYKDTSYIRTALIAQQMGHKVFIVIEKKSELDIILKESARLQIKPTLGVRIRLVSKSAGKWENTGGVKSKFGLNAKQVLELILQLKANDMLDCLQLMHCHLGSQIANIHDIRHCMQEVARYYIELRQLNAPIGTIDVGGGLSVDYEGTRSNKGCSMNYSLVEYATHIMLALKHLCQEAEISEPDLISESGRALTAHHAVLISNITDVEIINKAPVLPEISEDDSHVIRDIYDTYQAITDSSPTEIYNYAAHSLNEAHSLFKHGVISLQEKAKVEAFYTNICMEIKDKLDEENPSEKALLMRINECMAAKIFCNISFFQSIPDAWAIGQIFPVAPISQLNRTLSMHSILQDLTCDSDGTIKQYPGSSCVTTTLMLPSYDINNPYNIGFFLVGAYQEILGNLHNLFGDTNSLDVKLSDDGQFELDDLVSGDTVTNVLNLAHFDTKKLIQSYEKQLIKSELPKEKALSYLNELRSIFSQLTYLDGNIAQLEHHHHHH”, for which the “soluble on expression in E. coli” value is recorded as “soluble”.
Take “MAHHHHHHMYLHVMKVACTPDERHCENSVNPSSSSTLPSATTSSSCPVEHGVPDEESRFTRLYEAAVENESALRVGNYTRRLLFDEFCATSDATRQASQPTCRMLRQRHPALRSLSLSVEGMHSAGADRTSATQLPADSTMSAAESLQAYLSPALSAWRCASQEPFASSAQVAAAAPLPTSAVASDVRPRSPLPLHIDESDAPVDEGAHGEGLEALYMDVFDQEGPANNHEVAVNAAYTREREAADRAALLSAQQATMAGCPCGFTARGSTPSADVSLSNASSLLPEEDDISLVLQPVLGGVAQRRGRGIRVHLESEPSVTTSSSMVDASFLQAGRETTTLTCAVCELSGVVGDPHRTCIDAVELQEEDELHPCGTCGALVHSYCACPGTTADTHYCCNPCCPGGGTV”: the “soluble on expression in E. coli” value was “not soluble”.
On to “MKIVIGTKIKEQRQQHEWSQQTVAERLHVSRQTISKWELGKSYPDLELLVALSKLFSVSTDELLGLSRRPVQRPWWQLLLRKRSRTDMTVKWYSGGQDRARVAVGIISDLVANLNTTNEQPLRQLLATYYQELLEQRTGSVLGVFDRMNLDISKCLRQQQIKLSPENEQLMQQLVGLNMIYYR”, for which the “soluble on expression in E. coli” value is reported as “not soluble”.
The value for “MGSDKIHHHHHHMKFYNRENELAELQRIQELSFEENSRLTVVTGRRRIGKTSLIMRAFEKTPTIYLFVGRKNEASLCREFITLVSQALDIYVPEEISTFKSLFRYIMEVATRQSFNLVIDEFQEFYNINKSIYSDIQDIWDQYRQKTHMNFVVSGSIYSLMEKIFHNEKEPLFGRADNIIKLSAFSLNVLKKIIKDYHPQYTNDDLLALYSFSGGVPKYVELFCDNRVLTVDGMIDFMVRDNSPFTDEGKNLLIEEFGKNYGTYFSILSAISGGYNTQTEIEALLGEKSLGGYLKRLIEDYNIVVRQRPVFSKEGSQTVRYGICDNFIHFWFNYFDRNRSLIEIKNFIGLRKLIKADYPTYSGKILEQYFKQKYAESYEFRLIGSWWEPKGNQNEIDIVAIYLDNKSAIVAEVKRQKKNFKPELFQKKVEHLENKVLAKYQINTVCLSLEDM” was “not soluble”.
As for “MGSDKIHHHHHHMQRLMNNIMKVENFLAQKSINYDKIDRFLMFRMYEKYKKYFKNIPIIQLIGTNGKGSTGRYLTQLLENLNYKIGHYTSPHIFSFNERFYLDGKIANDEELEQAHIRLEEIFKQDLQKLSYFEYATFLAMILFQKCDFIVLEAGVGGEYDATSIFERRMSIFTRIGFDHIQILGNSLEDIARTKLKVMAPIALISDEQEQNVLNLAKKIAFLKKANLQVSSLNPFLKEKFEIYCKKFVLPYFLKHNLKLALKACEILTSQEKTLEALKKLQELNLQGRCQEISPNFFVDVGHNPMAAKAMLDKFQGEKINLIYNAYLDKDIFQILNTLKPIIDTIQIYKYKSAERKLADDEIYSIASKLGMQCKEFVKLEENKKNLVFGSFMLVENFLKEWCGKK”, the entry is “not soluble”; as for “MGSDKIHHHHHHMFSMTKDWREQRILDSSEFTHADWLQAAQRIVILGRLNEDELTRLFELATLFLADKSITGAQGFEITDAVKQSIALQACLPILNLSLEWYAGWSAIIIYPGSYKSETTTVDELGIVHEGSQHRSGEAWLRGPVILSWKDAKHSGERDGHNVVIHEFVHKLDMLNGRANGFPPLQPDMDPVRWTEIMTRDFEDFQSHHKSGFDRYGATNPAEFFAVLSEVFFETPQKLIDAYPDIYEIMVKFFRQTPLEPRP”, “not soluble”.
On to “FEKVYHLKLSIKGITPQIWRRIQVPENYTFLDLHKAIQAVMDWEDYHLHEFEMVNPKTGMLDKIGAEGDDFDAFGGPLVSEKKAKLSDYFTLENKEALYTYDFGDNWQVKVRLEKILPRKEGVEYPICTAGKRAAVPEDSGGVWGYEEMLEVLKDSEHEEYEDTVLWLGDDFDPEYFDPKDVS”, for which the “soluble on expression in E. coli” value is “not soluble”.
With “ASTSRLDALPRVTCPNHPDAILVEDYRAGDMICPECGLVVGDRVIDVGSEWRTFSNDK”, the “soluble on expression in E. coli” value is on record as “soluble”.
On to “MFDFIGNGSAFNTERGNNSAFIKKNSSMILVDCGGTVFHRIKQLNLLQDIKNLYIIITHTHPDHIGSLGDLIFYCYYILKFKPTIIYPNKDIITDFFNIIGVGDEMYELVSDNKVNLTAPEFGDLNIEFIPASHVGVIPAYGFLIGMSDNLVYYSGDGNKLPEKNYKMAGDPLEHHHHHH”, for which the “soluble on expression in E. coli” value is on record as “not soluble”.
“QGQPLANFEGGQPMEALQQWTAAVVKAVEGKLPGITGDDAEAEPAEDPRFEPATEALNAGDFDAAIAVYEEILRHEPKNQMALQARDNARLLSRLKDADRSVDPIAVADADLQDVDKAFAAADAEITTGKVEEAFDRLIELLPNEKVRTRLLELYSVFEPSDSRVQAARSKMASKLF”: the “soluble on expression in E. coli” value is “not soluble”.
For the sequence “MPIVYYDGNCIYCYNYVIWLIQHDLPRNYQFATLKGEVGQQFFKQHPEAANKNSVILQKGDRIYFESQAIIKLITALPNRTKLLGVGLWLVPKPVRNFGYRMFANNRNRMWKTTWHQPNDYEKSFFLDDNAKVKLTD”, the “soluble on expression in E. coli” value is listed as “not soluble”.
